The source of these data is publication PMC4267655, “Brr2p carboxy-terminal Sec63 domain modulates Prp16 splicing RNA helicase” (Nucleic Acids Research, 2014).

To fix the notation:
B1: Prp16p (wild type), LexA-bait fusion [budding yeast] / Brr2 H2-Sec63-2p (wild type), Gal4AD-prey fusion [budding yeast] (parent complex)
chain 1: MGHSGREERIKDIFKELTSKELTPGLLLTLQKLAQKPNTNLEQFIASCKALTKLSSNNPIIFNELLELLKNKSEEDSTGPKKIAPSINKRKKFKIQLDLDDNEDELDSPVQKKPAPTRTLFKRIDKLKAKQLRQYSPTVKDPSPNSEQQTQNGHAETKDYEPTRSEVVEEDREWYDNDDDYGNLVPEPLSELPEEAKLLPVIRNIDNDDALRNTVQLYPIPLKQRMEWIPPFLSKFALENKVPTSIIIGSISETSSQVSALSMVNPFRNPDSEFSANAKRGSKLVALRRINMEHIQQSRDNTTVLNTAMGEVLGLENNNKAKDKSNQKICDDTALFTPSKDDIKHTKEQLPVFRCRSQLLSLIRENQVVVIIGETGSGKTTQLAQYLYEEGYANDRGKSIVVTQPRRVAAISVAKRVAMEMQVPLGKEVGYSIRFEDVTDSECTKLKFVTDGILLRETLLDDTLDKYSCVIIDEAHERSLNTDILLGFFKILLARRRDLKLIITSATMNAKKFSAFFGNAPQFTIPGRTFPVQTIYTSNPVQDYVEAAVSQAVKIHLANDCSSGDILIFMTGQEDIETTFDTLQEKFLQVYSKKFGTANFEEINDIEILPIYSALPADLQFKIFQDLHGTKRKIIIATNIAETSLTIKGIRYVIDCGYSKLKVYNPKIGLDSLVITPISKANADQRSGRAGRTAPGTAYRLYTEDTFKEDMYLQTIPEIQRTNLSNTLLLLKSLDVTDELSKFPFIDKPPLQTFLSSLYELWFIGAIDTSGQLTPLGLQMAKFPLQPSLSKILLIAVRNGCSDEMLTIVSMLSVPQVFYRPKERQKEADIARNKFFIAKSDHLTLLNVFEQWRANNFSSHWCNKHFVQYKSLVRARDIRDQLLTILKSQKIPVISSGKDWDIIKKCICSGFAHQAAKITGLRNYVHLKTGVSVQLHPTSALHGLGDLPPYVVYHELLMTSKEYICCVTSVDPFWLMEYGGLLYDIKRIKNDQEATTTGLFGEHYEHTLDKVEDDIDINIRRCKDMRDSVIQELKMTDNSNKEDKKQKTKKQNILNGKENSMKPFKRRKPFF
chain 2: MTEHETKDKAKKIREIYRYDEMSNKVLKVDKRFMNTSQNPQRDAEISQPKSMSGRISAKDMGQGLCNNINKGLKENDVAVEKTGKSASLKKIQQHNTILNSSSDFRLHYYPKDPSNVETYEQILQWVTEVLGNDIPHDLIIGTADIFIRQLKENEENEDGNIEERKEKIQHELGINIDSLKFNELVKLMKNITDYETHPDNSNKQAVAILADDEKSDEEEVTEMSNNANVLGGEINDNEDDDEEYDYNDVEVNSKKKNKRALPNIENDIIKLSDSKTSNIESVPIYSIDEFFLQRKLRSELGYKDTSVIQDLSEKILNDIETLEHNPVALEQKLVDLLKFENISLAEFILKNRSTIFWGIRLAKSTENEIPNLIEKMVAKGLNDLVEQYKFRETTHSKRELDSGDDQPQSSEAKRTKFSNPAIPPVIDLEKIKFDESSKLMTVTKVSLPEGSFKRVKPQYDEIHIPAPSKPVIDYELKEITSLPDWCQEAFPSSETTSLNPIQSKVFHAAFEGDSNMLICAPTGSGKTNIALLTVLKALSHHYNPKTKKLNLSAFKIVYIAPLKALVQEQVREFQRRLAFLGIKVAELTGDSRLSRKQIDETQVLVSTPEKWDITTRNSNNLAIVELVRLLIIDEIHLLHDDRGPVLESIVARTFWASKYGQEYPRIIGLSATLPNYEDVGRFLRVPKEGLFYFDSSFRPCPLSQQFCGIKERNSLKKLKAMNDACYEKVLESINEGNQIIVFVHSRKETSRTATWLKNKFAEENITHKLTKNDAGSKQILKTEAANVLDPSLRKLIESGIGTHHAGLTRSDRSLSEDLFADGLLQVLVCTATLAWGVNLPAHTVIIKGTDVYSPEKGSWEQLSPQDVLQMLGRAGRPRYDTFGEGIIITDQSNVQYYLSVLNQQLPIESQFVSKLVDNLNAEVVAGNIKCRNDAVNWLAYTYLYVRMLASPMLYKVPDISSDGQLKKFRESLVHSALCILKEQELVLYDAENDVIEATDLGNIASSFYINHASMDVYNRELDEHTTQIDLFRIFSMSEEFKYVSVRYEEKRELKQLLEKAPIPIREDIDDPLAKVNVLLQSYFSQLKFEGFALNSDIVFIHQNAGRLLRAMFEICLKRGWGHPTRMLLNLCKSATTKMWPTNCPLRQFKTCPVEVIKRLEASTVPWGDYLQLETPAEVGRAIRSEKYGKQVYDLLKRFPKMSVTCNAQPITRSVMRFNIEIIADWIWDMNVHGSLEPFLLMLEDTDGDSILYYDVLFITPDIVGHEFTLSFTYELKQHNQNNLPPNFFLTLISENWWHSEFEIPVSFNGFKLPKKFPPPTPLLENISISTSELGNDDFSEVFEFKTFNKIQSQVFESLYNSNDSVFVGSGKGTGKTAMAELALLNHWRQNKGRAVYINPSGEKIDFLLSDWNKRFSHLAGGKIINKLGNDPSLNLKLLAKSHVLLATPVQFELLSRRWRQRKNIQSLELMIYDDAHEISQGVYGAVYETLISRMIFIATQLEKKIRFVCLSNCLANARDFGEWAGMTKSNIYNFSPSERIEPLEINIQSFKDVEHISFNFSMLQMAFEASAAAAGNRNSSSVFLPSRKDCMEVASAFMKFSKAIEWDMLNVEEEQIVPYIEKLTDGHLRAPLKHGVGILYKGMASNDERIVKRLYEYGAVSVLLISKDCSAFACKTDEVIILGTNLYDGAEHKYMPYTINELLEMVGLASGNDSMAGKVLILTSHNMKAYYKKFLIEPLPTESYLQYIIHDTLNNEIANSIIQSKQDCVDWFTYSYFYRRIHVNPSYYGVRDTSPHGISVFLSNLVETCLNDLVESSFIEIDDTEAEVTAEVNGGDDEATEIISTLSNGLIASHYGVSFFTIQSFVSSLSNTSTLKNMLYVLSTAVEFESVPLRKGDRALLVKLSKRLPLRFPEHTSSGSVSFKVFLLLQAYFSRLELPVDFQNDLKDILEKVVPLINVVVDILSANGYLNATTAMDLAQMLIQGVWDVDNPLRQIPHFNNKILEKCKEINVETVYDIMALEDEERDEILTLTDSQLAQVAAFVNNYPNVELTYSLNNSDSLISGVKQKITIQLTRDVEPENLQVTSEKYPFDKLESWWLVLGEVSKKELYAIKKVTLNKETQQYELEFDTPTSGKHNLTIWCVCDSYLDADKELSFEINVK

In one assay the parent is B1. The experiment in a line: Y2H interaction assay; growth on -LWH medium with 3-AT; parent: 50 nM.
Consider chain 1 H476D, for which the screen value came out at 50 mM. Same read-out and setting: with chain 1 D473E the figure was 50 mM; with chain 1 R686Q, 50 mM; with chain 1 R686I, 0 mM.

For chain 1 R456K, chain 1 G691R, the screen value was 0 mM. On the same count and under the same terms, with chain 1 T507A the figure was 50 mM; with chain 1 Q685H, 50 mM; with chain 1 L335F, 50 mM.

Turning to chain 1 K379R, the screen value worked out at 50 mM.

The variants in a further assay derive from B1. The assay is described as above. The source holds these as a separate data set.
As to chain 2 R1899G, the screen value is 150 mM.

Turning to chain 2 L1951P, the screen value was found to be 0 mM.
